Publication PMC12143351
Like-named read-outs stand apart in the source and are kept apart here.

Legend:
[1] = molecular target: WT-nsp5_(BA.1), SARS-CoV-2 nsp5 protease of the Omicron (BA.1) strain (SARS-CoV-2 (Omicron BA.1)); test: SEC-MALS
[2] = molecular target: WT-nsp5_(BA.1), SARS-CoV-2 nsp5 protease of the Omicron (BA.1) strain (SARS-CoV-2 (Omicron BA.1)); test: SEC-MALS; remark: listed apart in the source

## WT-nsp5_(BA.1), SARS-CoV-2 nsp5 protease of the Omicron (BA.1) strain (enzyme)
[1]
  percent dimeric: 64%
[2]
  percent dimeric: 72%
  stoichiometry N: 2
